# Test results as given in patent US7049398B1, “Melanocortin metallopeptide constructs, combinatorial libraries and applications” (Palatin Technologies, Inc., priority 1999, dated 2006).
# Primed or numbered codes have the meaning given here. Where no end group is shown, it is not given here. [ ]: non-standard residue; d: D form. The star is where a group is joined. 2Nal = N[C@@H](Cc1ccc2ccccc2c1)C(=O)O; Hydrocinnamoyl = O=C(CCc1ccccc1)*; Tic = O=C(O)[C@@H]1Cc2ccccc2CN1; Aic = NC1(C(=O)O)Cc2ccccc2C1; 4Abz = Nc1ccc(C(=O)O)cc1; Ac6c = NC1(C(=O)O)CCCCC1; Heptanoyl = CCCCCCC(=O)*; Nle = CCCC[C@H](N)C(=O)O; 2Abz = Nc1ccccc1C(=O)O; Bz′ = not defined here; Ac3c = NC1(C(=O)O)CC1; Inp = O=C(O)C1CCNCC1
# How the values were obtained:
# hMC4-R = molecular target: T1, hMC4-R (Homo sapiens, UniProt P32245); assay: Competitive inhibition binding assay, 125I-NDP-alpha-MSH, hMC4-R membranes; settings: 0.4 nM 125I-NDP-alpha-MSH
# T1 construct: expressed in transfected cells; host or cells: 293 cells
# Procedure: (§1) Representative Peptides of this Invention. Representative peptides of this invention were made using library and synthesis methods described herein, and selected peptides were tested using a binding assay. […] The peptides were synthesized using conventional peptide synthesis methods, and were complexed with rhenium using the methods described herein.
# (§2) The competitive inhibition binding assay was conducted using membranes prepared from hMC4-R and B-16 mouse melanoma cells (containing MC1-R) using 0.4 nM ^125I-NDP-alpha-MSH (New England Nuclear, Boston, Mass., USA) in 50 mM HEPES buffer containing 1 mM MgCl2, 2 mM CaCl2, and 5 mM KCl, at pH 7.2. The assay tube also contained a chosen concentration of the test peptide of this invention, complexed to a rhenium metal ion as indicated, for determining its efficacy in inhibiting the binding of ^125I-NDP-alpha-MSH to its receptor. Non-specific binding was measured by complete inhibition of binding of ^125I-NDP-alpha-MSH in the assay with the presence of 1 μM alpha-MSH. Incubation was for 90 minutes at room temperature, after which the assay mixture was filtered and the membranes washed three times with ice cold buffer. The filter was dried and counted in a gamma counter for remaining radioactivity bound to the membranes. 100% specific binding was defined as the difference in radioactivity (cpm) bound to cell membranes in the absence and presence of 1 μM alpha-MSH. The cpm obtained in presence of test compounds were normalized with respect to 100% specific binding to determine the percent inhibition of ^125I-NDP-alpha MSH binding. […]
# [1] = molecular target: T2, MC1-R (B-16 mouse melanoma cells) (Mus musculus, UniProt Q01727); assay: Competitive inhibition binding assay, 125I-NDP-alpha-MSH, B-16 mouse melanoma cell membranes; settings: 0.4 nM 125I-NDP-alpha-MSH
# T2 construct: B-16 mouse melanoma cells (containing MC1-R); endogenous in cells; host or cells: B-16 mouse melanoma cells
# Procedure: as §1, §2
# [2] = tested on: Human MC4-R or B-16 cells; assay: cAMP stimulation assay in absence and presence of alpha-MSH; format: cell-based, human; mouse; settings: 1 h 37° C., 0.2 mM IBMX
# Procedure: For selected peptides of this invention, a cAMP assay was also performed. Human MC4-R or B-16 cells were grown to confluence in 96 well plates (plating approximately 250,000 cells per well). Identical sets of cells in triplicate were treated with 0.2 mM isobutylmethylxanthine (IBMX) and the chosen concentration of the rhenium metal ion-complexed peptide and the rhenium metal ion-complexed peptide in the presence of 20 nM alpha-MSH. Cells similarly treated but with only 20 nM alpha-MSH served as positive control. A buffer blank, as a negative control, was also included. Incubation was for one hour at 37° C. after which the medium was aspirated and the cells extarted with 150 microliters of HCl. Total cAMP accumulated in 100 microliters of this solution was quantitated using a commercially available low pH cAMP assay kit (R&D Systems) by the procedure specified by the kit supplier. […] The rhenium metal ion-complexed peptide showing cAMP accumulation in the same range as or higher than the positive control (buffer blank in the presence of alpha-MSH) are considered to be agonist ligands. The rhenium metal ion-complexed peptide showing accumulation in the same range as the negative control (buffer blank in the absence of alpha-MSH) are ineffective at the test concentration if the result is similar to the positive control where alpha-MSH is also present in the assay. The rhenium metal ion-complexed peptide showing accumulation in the same range as the negative control are considered to be antagonists if there is inhibition in cAMP when alpha-MSH is present in the assay. Values above the positive control are due to potent agonism, experimental variance or synergistic agonistic effects of rhenium metal ion-complexed peptide and alpha-MSH. […]
# [3] = Conc. cut off 10 μM, hMC4-R membranes
# [4] = Conc. cut off 10 μM, B-16 mouse melanoma cell membranes
# [5] = 10 μM test compound + 20 nM alpha-MSH
# [6] = Conc. cut off 1 μM, hMC4-R membranes
# [7] = Conc. cut off 1 μM, B-16 mouse melanoma cell membranes
# [8] = 1 μM test compound + 20 nM alpha-MSH
# [9] = Conc. cut off 1 μM test peptide
# [10] = Conc. cut off 10 μM test peptide
# T2 sequence (Q01727 whole entry): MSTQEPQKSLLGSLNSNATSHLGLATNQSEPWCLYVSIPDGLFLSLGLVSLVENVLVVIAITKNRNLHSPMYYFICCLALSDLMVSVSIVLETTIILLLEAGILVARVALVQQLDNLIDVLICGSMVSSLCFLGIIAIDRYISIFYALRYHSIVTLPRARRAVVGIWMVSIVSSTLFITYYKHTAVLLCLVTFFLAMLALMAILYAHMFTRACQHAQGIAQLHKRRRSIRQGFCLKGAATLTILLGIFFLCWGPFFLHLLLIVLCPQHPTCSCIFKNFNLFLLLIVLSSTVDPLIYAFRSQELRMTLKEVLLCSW
# T1 sequence (P32245 whole entry): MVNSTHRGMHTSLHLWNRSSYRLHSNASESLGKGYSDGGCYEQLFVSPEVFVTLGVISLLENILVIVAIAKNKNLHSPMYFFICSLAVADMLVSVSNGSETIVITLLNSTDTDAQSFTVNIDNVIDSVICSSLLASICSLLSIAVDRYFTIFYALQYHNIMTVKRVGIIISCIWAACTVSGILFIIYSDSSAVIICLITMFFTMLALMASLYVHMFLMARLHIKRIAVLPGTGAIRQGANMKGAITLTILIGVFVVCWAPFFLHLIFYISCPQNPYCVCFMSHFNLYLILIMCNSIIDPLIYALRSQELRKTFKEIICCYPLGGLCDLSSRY
Substance,% Inhibition MC4-R (hMC4-R; [9]),"% Inhibition MC1-R (B-16) [1, 9]",other results
PL-838: metallopeptide of Table 1 (Ac-HFRCW-NH2; also: ReO[V] metal complex),–,–,"% Inhibition MC4-R (hMC4-R; [3]): 0%; % Inhibition MC1-R (B-16) [1, 4]: 35%; cAMP Accumulation, Presence of α-MSH [2, 5]: 53 pmol/mL; cAMP Accumulation, Absence of α-MSH ([2]; 10 μM test compound): 2 pmol/mL"
PL-1265: metallopeptide of Table 1 (Ac-EHGRWC-NH2; also: ReO[V] metal complex),–,–,"% Inhibition MC4-R (hMC4-R; [6]): 67%; % Inhibition MC1-R (B-16) [1, 7]: 34%; cAMP Accumulation, Presence of α-MSH [2, 8]: 127 pmol/mL; cAMP Accumulation, Absence of α-MSH ([2]; 1 μM test compound): 3 pmol/mL"
PL-1346: metallopeptide of Table 1 (Hydrocinnamoyl-HRCW-NH2; also: ReO[V] metal complex),–,–,"% Inhibition MC4-R (hMC4-R; [3]): 77%; % Inhibition MC1-R (B-16) [1, 4]: 86%; cAMP Accumulation, Presence of α-MSH [2, 5]: 76 pmol/mL; cAMP Accumulation, Absence of α-MSH ([2]; 10 μM test compound): 3 pmol/mL"
PL-1348 (Ac-RHFCW-NH2; also: ReO[V] metal complex),–,–,"% Inhibition MC4-R (hMC4-R; [3]): 51%; % Inhibition MC1-R (B-16) [1, 4]: 57%"
PL-1360 (Ac-RWFCH-NH2; also: ReO[V] metal complex),–,–,"% Inhibition MC4-R (hMC4-R; [3]): 62%; % Inhibition MC1-R (B-16) [1, 4]: 57%"
PL-1364 (Ac-WFHCR-NH2; also: ReO[V] metal complex),–,–,"% Inhibition MC4-R (hMC4-R; [3]): 72%; % Inhibition MC1-R (B-16) [1, 4]: 74%"
PL-1366 (Ac-HFWCR-NH2; also: ReO[V] metal complex),–,–,"% Inhibition MC4-R (hMC4-R; [3]): 64%; % Inhibition MC1-R (B-16) [1, 4]: 78%"
PL-1394 (Ac-HRWCF-NH2; also: ReO[V] metal complex),–,–,"% Inhibition MC4-R (hMC4-R; [6]): 0%; % Inhibition MC4-R (hMC4-R; [3]): 59%; % Inhibition MC1-R (B-16) [1, 7]: 27%; % Inhibition MC1-R (B-16) [1, 4]: 84%"
PL-1405 (Heptanoyl-FHCW-NH2; also: ReO[V] metal complex),–,–,"% Inhibition MC4-R (hMC4-R; [6]): 27%; % Inhibition MC1-R (B-16) [1, 7]: 20%"
PL-1406 (Heptanoyl-RFHCW-NH2; also: ReO[V] metal complex),–,–,"% Inhibition MC4-R (hMC4-R; [6]): 42%; % Inhibition MC1-R (B-16) [1, 7]: 32%"
PL-1412 (FHCW-NH2; also: ReO[V] metal complex),–,–,"% Inhibition MC4-R (hMC4-R; [6]): 54%; % Inhibition MC1-R (B-16) [1, 7]: 43%"
PL-1416 (Ac-[Nle]AHFRCW-NH2; also: ReO[V] metal complex),–,–,"% Inhibition MC4-R (hMC4-R; [6]): 35%; % Inhibition MC1-R (B-16) [1, 7]: 85%"
PL-1504 (Ac-RF[2Nal]NCF-NH2; also: ReO[V] complex),21%,36%,–
PL-1511 (Ac-RFFNCAF-NH2; also: ReO[V] metal complex),26%,21%,–
PL-1512 (Ac-RFFNACF-NH2; also: ReO[V] metal complex),24%,20%,–
PL-1514 (Ac-RFFNFC-NH2; also: ReO[V] metal complex),30%,28%,–
PL-1595 (Ac-[Nle]AH[Aic]RCW-NH2; also: ReO[V] metal complex),3%,60%,–
PL-1606 (Ac-[Nle]RA[Aic]CW-NH2; also: ReO[V] metal complex),63%,44%,–
PL-1621 (Ac-[Nle]AH[Ac6c]RCW-NH2; also: ReO[V] complex),34%,36%,–
PL-1649 (Ac-HGGCW-NH2; also: ReO[V] metal complex),–,–,"% Inhibition MC4-R (hMC4-R; [10]): 62%; % Inhibition MC1-R (B-16) [1, 10]: 19%"
PL-1655 (Ac-HFRCW-NH2; also: ReO[V] metal complex),–,–,"% Inhibition MC4-R (hMC4-R; [10]): 51%; % Inhibition MC1-R (B-16) [1, 10]: 45%"
PL-1842: metallopeptide of Table 1 (Ac-[Nle]AHRFWC-NH2; also: ReO[V] complex),2%,27%,"cAMP Accumulation, Presence of α-MSH [2, 8]: 76 pmol/mL; cAMP Accumulation, Absence of α-MSH ([2]; 1 μM test compound): 25 pmol/mL"
PL-1926 ({Bz′}-Arg-Trp-Cys-NH2; also: ReO[V] complex),7%,25%,–

# Continued, in another order:
% Inhibition MC4-R (hMC4-R; [9]),"% Inhibition MC1-R (B-16) [1, 9]",Substance,other results
66%,73%,PL-1450 (Ac-[Nle]AHFRCW-NH2; also: ReO[V] metal complex),–
21%,28%,PL-1478 (Ac-RFFCS-NH2; also: ReO[V] metal complex),–
29%,45%,PL-1505 (Ac-RF[2Nal]NCF-NH2; also: ReO[V] complex),–
22%,20%,PL-1507 (Ac-RFFNCF-NH2; also: ReO[V] metal complex),–
30%,19%,PL-1509 (Ac-RFCFNAF-NH2; also: ReO[V] metal complex),–
31%,21%,PL-1510 (Ac-RFFCNAF-NH2; also: ReO[V] metal complex),–
18%,23%,PL-1513 (Ac-RFFNFC-NH2; also: ReO[V] metal complex),–
43%,14%,PL-1635 (Ac-[Nle]RA[Ac3c]CW-NH2; also: ReO[V] complex),–
38%,20%,PL-1636 (Ac-[Nle]AH[Ac3c]RCW-NH2; also: ReO[V] complex),–
70%,78%,PL-1751: metallopeptide of Table 1 (Ac-HXRWC-NH2; not fully specified (residue 2); printed as Ac-L-His-L-(N-2′naphthalene)Phe-L-Arg-L-Trp-L-Cys-NH2; also: ReO[V] complex),"cAMP Accumulation, Presence of α-MSH [2, 8]: 96 pmol/mL; cAMP Accumulation, Absence of α-MSH ([2]; 1 μM test compound): 71 pmol/mL"
−8%,9%,PL-1859 (Ac-FFC[Tic]K-NH2; also: ReO[V] complex),–
0%,6%,PL-1860 (Ac-FFC[Inp]K-NH2; also: ReO[V] complex),–
−14%,0%,PL-1861 (Ac-FFC[4Abz]K-NH2; also: ReO[V] complex),–
−7%,17%,PL-1862 (Ac-FFC[3‑Abz]K-NH2; also: ReO[V] complex),–
6%,19%,PL-1863 (Ac-FFC[2Abz]K-NH2; also: ReO[V] complex),–
